Assay results reported in the supplement of paper PMC10065799, “High-throughput profiling of sequence recognition by tyrosine kinases and SH2 domains using bacterial peptide display” (eLife, 2023).

Experiments:
AncSZ = assay: phosphorylation enrichment, bacterial display (enrichment ratio); higher = better substrate or ligand; peptides without Tyr show the background
EPHB1 = EPHB1 (UniProt P54762); assay: as above
EPHB2 = EPHB2 (UniProt P29323); assay: as above
FGFR1 = FGFR1 (UniProt P11362); assay: as above
Chain of FGFR1 (P11362 whole entry, looked up): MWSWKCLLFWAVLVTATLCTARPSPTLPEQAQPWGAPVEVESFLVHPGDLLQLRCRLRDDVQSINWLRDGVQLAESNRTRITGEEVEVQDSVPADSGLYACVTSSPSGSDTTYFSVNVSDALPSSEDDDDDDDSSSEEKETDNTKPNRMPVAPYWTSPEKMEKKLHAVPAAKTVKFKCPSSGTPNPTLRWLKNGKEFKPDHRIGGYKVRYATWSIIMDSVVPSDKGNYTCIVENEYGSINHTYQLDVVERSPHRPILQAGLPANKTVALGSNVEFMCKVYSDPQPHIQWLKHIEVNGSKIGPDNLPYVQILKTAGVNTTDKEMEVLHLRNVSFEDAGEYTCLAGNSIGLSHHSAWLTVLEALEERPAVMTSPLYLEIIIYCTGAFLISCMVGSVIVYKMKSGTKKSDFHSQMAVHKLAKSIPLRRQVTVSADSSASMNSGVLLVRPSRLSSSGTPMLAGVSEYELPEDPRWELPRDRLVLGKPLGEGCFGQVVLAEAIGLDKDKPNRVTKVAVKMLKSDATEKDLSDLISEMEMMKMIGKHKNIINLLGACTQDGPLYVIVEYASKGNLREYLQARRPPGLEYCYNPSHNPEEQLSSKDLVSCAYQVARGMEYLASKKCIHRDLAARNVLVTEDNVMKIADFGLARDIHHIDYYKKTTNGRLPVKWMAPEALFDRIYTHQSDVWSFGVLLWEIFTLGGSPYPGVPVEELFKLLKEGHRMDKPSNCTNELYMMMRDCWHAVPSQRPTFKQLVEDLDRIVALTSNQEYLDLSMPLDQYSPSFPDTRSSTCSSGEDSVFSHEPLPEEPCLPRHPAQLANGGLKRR

FGFR3 = FGFR3 (UniProt P22607); assay: as above
Chain of FGFR3 (P22607 whole entry, looked up): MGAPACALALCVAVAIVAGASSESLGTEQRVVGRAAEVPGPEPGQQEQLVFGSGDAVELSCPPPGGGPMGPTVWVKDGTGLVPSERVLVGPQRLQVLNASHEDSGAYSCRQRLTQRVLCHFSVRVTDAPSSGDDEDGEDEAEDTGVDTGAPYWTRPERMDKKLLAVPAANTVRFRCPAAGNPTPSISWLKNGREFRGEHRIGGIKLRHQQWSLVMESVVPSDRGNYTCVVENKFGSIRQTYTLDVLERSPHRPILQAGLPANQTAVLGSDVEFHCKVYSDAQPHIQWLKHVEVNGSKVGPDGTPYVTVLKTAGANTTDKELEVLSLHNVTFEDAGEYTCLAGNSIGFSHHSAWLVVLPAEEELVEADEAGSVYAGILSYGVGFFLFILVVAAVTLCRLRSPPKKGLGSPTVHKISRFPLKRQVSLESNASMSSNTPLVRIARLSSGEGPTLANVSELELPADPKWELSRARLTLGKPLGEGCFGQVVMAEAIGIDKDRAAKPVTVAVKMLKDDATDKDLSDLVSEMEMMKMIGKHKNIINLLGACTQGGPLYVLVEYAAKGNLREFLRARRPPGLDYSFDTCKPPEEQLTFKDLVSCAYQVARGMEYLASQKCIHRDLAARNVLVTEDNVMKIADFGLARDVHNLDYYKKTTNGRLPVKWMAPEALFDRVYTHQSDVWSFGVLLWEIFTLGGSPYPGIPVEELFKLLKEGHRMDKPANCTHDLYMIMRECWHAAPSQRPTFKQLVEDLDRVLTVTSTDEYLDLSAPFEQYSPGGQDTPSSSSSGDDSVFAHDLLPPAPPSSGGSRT

Fer (mouse) = assay: as above
Fes = Fes (UniProt P07332); assay: as above
Chain of Fes (P07332 whole entry, looked up): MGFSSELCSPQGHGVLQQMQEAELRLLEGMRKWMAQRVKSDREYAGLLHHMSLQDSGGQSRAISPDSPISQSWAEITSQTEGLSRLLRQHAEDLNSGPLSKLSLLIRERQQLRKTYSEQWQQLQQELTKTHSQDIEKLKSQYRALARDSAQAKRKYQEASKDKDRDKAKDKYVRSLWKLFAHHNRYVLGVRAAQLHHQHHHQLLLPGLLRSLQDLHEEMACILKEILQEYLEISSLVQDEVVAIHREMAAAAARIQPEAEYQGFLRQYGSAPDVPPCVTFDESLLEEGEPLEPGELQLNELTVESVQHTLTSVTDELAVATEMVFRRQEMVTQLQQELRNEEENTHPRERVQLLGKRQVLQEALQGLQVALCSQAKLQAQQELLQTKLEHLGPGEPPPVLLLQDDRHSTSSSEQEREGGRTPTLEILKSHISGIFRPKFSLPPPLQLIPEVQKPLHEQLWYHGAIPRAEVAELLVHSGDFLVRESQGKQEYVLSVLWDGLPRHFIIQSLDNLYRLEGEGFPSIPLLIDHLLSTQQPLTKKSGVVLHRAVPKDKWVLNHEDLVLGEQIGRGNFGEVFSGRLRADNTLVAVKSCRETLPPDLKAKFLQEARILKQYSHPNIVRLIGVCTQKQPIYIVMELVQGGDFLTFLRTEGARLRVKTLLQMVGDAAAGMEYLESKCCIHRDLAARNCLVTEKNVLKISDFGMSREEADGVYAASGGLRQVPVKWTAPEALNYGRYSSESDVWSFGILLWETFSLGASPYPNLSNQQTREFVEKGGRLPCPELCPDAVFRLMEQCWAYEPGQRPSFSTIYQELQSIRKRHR

Fyn = Fyn (UniProt P06241); assay: as above
Hck = Hck (UniProt P08631); assay: as above
Chain of Hck (P08631 whole entry, looked up): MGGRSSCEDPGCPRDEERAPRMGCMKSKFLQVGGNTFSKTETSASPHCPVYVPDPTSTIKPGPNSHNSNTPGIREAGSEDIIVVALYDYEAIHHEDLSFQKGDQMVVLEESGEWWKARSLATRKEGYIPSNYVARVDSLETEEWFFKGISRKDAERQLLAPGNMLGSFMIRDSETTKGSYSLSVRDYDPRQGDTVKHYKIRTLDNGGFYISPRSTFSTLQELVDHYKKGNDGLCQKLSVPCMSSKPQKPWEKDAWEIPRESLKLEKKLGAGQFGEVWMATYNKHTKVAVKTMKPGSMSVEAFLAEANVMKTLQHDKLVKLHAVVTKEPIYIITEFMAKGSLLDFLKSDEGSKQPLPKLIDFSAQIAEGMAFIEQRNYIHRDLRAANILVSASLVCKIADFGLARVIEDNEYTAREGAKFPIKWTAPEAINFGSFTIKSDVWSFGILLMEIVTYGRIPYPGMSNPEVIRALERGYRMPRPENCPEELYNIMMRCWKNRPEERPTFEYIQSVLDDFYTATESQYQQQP

Jak2 = Jak2 (UniProt O60674); assay: as above
MERTK = MERTK (UniProt Q12866); assay: as above
c-Abl (mouse) = assay: as above
c-Src = assay: as above
Grb2 SH2 = Grb2 SH2 (UniProt P62993); assay: SH2 binding enrichment of the phosphorylated peptide, bacterial display (enrichment ratio); higher = better substrate or ligand; peptides without Tyr show the background
SHP2-C SH2 = assay: as above
c-Src SH2 = assay: as above
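For SH2 binding enrichment of the phosphorylated peptide, bacterial display in this document: peptide library displayed on the E. coli surface as eCPX fusions, selected cells deep-sequenced, score is each peptide's frequency after selection divided by its frequency in the input.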
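For phosphorylation enrichment, bacterial display in this document: 11-residue human phosphosite peptides and single-mutation variants displayed on the E. coli surface, counted by deep sequencing, each peptide's frequency after selection divided by its frequency in the unselected input library; frequency after pTyr selection over input frequency; kinase dosed for 20-30% of maximal phosphorylation in three min.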

Chain of EPHB1 (P54762 whole entry, looked up): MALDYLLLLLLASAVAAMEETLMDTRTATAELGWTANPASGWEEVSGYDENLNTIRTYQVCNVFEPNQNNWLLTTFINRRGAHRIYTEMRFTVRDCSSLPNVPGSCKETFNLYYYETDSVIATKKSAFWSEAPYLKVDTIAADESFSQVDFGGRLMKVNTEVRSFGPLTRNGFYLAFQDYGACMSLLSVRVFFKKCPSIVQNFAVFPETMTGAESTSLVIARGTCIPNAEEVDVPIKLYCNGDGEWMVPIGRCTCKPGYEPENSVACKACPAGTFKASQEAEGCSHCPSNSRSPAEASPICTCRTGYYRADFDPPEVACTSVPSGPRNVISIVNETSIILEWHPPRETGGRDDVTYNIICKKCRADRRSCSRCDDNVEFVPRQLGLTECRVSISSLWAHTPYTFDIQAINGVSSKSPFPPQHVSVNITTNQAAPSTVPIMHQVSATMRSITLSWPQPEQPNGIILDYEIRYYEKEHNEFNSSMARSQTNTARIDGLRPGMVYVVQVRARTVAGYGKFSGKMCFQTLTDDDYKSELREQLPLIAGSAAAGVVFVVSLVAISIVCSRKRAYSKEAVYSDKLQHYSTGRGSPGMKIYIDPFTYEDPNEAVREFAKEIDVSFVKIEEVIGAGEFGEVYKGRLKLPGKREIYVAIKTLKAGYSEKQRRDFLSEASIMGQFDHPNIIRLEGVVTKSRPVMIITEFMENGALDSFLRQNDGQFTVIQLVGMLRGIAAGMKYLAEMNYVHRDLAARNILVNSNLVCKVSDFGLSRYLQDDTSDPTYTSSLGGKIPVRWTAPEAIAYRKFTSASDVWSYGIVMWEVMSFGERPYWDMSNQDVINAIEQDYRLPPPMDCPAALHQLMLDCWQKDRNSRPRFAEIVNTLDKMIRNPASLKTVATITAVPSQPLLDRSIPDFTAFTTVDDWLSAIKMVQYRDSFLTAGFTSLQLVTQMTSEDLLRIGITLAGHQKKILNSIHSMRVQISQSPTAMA
Chain of EPHB2 (P29323 whole entry, looked up): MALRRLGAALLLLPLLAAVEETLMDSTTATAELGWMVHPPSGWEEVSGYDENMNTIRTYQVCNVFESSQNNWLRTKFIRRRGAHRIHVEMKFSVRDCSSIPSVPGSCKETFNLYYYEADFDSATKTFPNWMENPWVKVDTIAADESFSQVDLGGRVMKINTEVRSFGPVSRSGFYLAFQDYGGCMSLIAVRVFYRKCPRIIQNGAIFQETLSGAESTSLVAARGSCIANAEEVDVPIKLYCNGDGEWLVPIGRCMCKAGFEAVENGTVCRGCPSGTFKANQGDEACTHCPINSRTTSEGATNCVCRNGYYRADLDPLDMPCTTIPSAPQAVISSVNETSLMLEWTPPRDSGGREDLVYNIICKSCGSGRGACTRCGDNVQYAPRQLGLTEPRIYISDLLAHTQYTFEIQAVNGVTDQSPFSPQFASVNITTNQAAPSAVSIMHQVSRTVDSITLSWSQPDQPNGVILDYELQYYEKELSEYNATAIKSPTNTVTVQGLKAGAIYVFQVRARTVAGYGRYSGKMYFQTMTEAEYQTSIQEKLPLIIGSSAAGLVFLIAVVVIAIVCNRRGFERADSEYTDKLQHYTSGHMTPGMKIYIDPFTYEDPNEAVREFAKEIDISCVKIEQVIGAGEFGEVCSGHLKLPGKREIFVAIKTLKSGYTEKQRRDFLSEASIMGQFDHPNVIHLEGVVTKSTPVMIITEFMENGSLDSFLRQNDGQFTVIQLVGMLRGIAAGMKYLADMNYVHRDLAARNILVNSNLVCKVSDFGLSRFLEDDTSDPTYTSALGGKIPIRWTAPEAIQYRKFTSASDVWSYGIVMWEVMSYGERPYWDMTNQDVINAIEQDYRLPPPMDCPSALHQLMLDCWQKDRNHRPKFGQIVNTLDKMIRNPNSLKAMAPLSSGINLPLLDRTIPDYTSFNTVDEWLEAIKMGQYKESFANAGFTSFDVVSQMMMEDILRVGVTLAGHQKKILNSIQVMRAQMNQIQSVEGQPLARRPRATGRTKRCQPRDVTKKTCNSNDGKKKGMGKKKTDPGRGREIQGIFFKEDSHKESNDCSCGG

Sequence	SH2 binding enrichment (Grb2 SH2)	SH2 binding enrichment (SHP2-C SH2)	SH2 binding enrichment (c-Src SH2)	phosphorylation enrichment (AncSZ)	phosphorylation enrichment (EPHB1)	phosphorylation enrichment (EPHB2)	phosphorylation enrichment (FGFR1)	phosphorylation enrichment (FGFR3)	phosphorylation enrichment (Fer (mouse))	phosphorylation enrichment (Fes)	phosphorylation enrichment (Fyn)	phosphorylation enrichment (Hck)	phosphorylation enrichment (Jak2)	phosphorylation enrichment (MERTK)	phosphorylation enrichment (c-Abl (mouse))	phosphorylation enrichment (c-Src)
ALCHYYKLNII [ETV6_Y402_R399C]	0.895	1.34	0.855	1.59	0.97	0.738	5.97	5.13	0.615	1.62	0.798	1.09	3.3	2.26	2	1.54
NLTLKYPIEHG [ACTA1_Y71_I66N]	0.804	0.718	0.507	0.767	0.493	0.541	0.598	0.549	0.375	0.93	0.47	0.446	0.669	0.407	0.717	0.417
GFKVRYATWSI [FGFR1_Y210_YF]	1.64	1.63	1.16	1.11	0.714	0.534	0.463	0.795	0.512	1.22	0.494	0.512	0.997	0.499	0.711	0.392
ATHSRYRLNDF [CLDN14_Y233_G232R_YF]	0.935	0.825	0.674	0.419	0.296	0.337	0.307	0.308	0.349	0.706	0.329	0.449	0.413	0.391	0.546	0.36
GQRDLYSGLNQ [CD3E_Y199]	0.852	0.574	0.822	1.11	2.25	2.35	0.449	0.583	4.76	0.749	6.14	12.4	0.594	5.2	1.06	6.88
WHHTFYNEPRV [ACTA1_Y93_L96P]	1.4	1.07	1.57	0.965	0.573	0.497	0.522	0.561	0.582	1.03	0.429	0.552	0.794	0.59	0.709	0.508
TKFRNYLIPKG [CYP2C8_Y379]	1.1	0.92	0.631	0.47	0.374	0.421	0.381	0.425	0.345	0.565	0.365	0.429	0.592	0.374	0.573	0.443
SNNFIYKTLGV [FAM83B_Y639_YF]	0.785	0.45	0.405	0.637	0.45	0.485	0.484	0.555	0.421	0.734	0.506	0.572	0.639	0.394	0.631	0.478

Continued, in another order:

SH2 binding enrichment (Grb2 SH2)	SH2 binding enrichment (SHP2-C SH2)	SH2 binding enrichment (c-Src SH2)	Sequence	phosphorylation enrichment (AncSZ)	phosphorylation enrichment (EPHB1)	phosphorylation enrichment (EPHB2)	phosphorylation enrichment (FGFR1)	phosphorylation enrichment (FGFR3)	phosphorylation enrichment (Fer (mouse))	phosphorylation enrichment (Fes)	phosphorylation enrichment (Fyn)	phosphorylation enrichment (Hck)	phosphorylation enrichment (Jak2)	phosphorylation enrichment (MERTK)	phosphorylation enrichment (c-Abl (mouse))	phosphorylation enrichment (c-Src)
0.88	0.896	0.494	PLGVLYKVKVF [PTS_Y128_V124L_YF]	1.54	0.922	0.824	0.562	0.862	0.692	1.64	0.801	0.553	1.23	0.446	0.973	0.311
0.861	0.84	0.515	TIQIMFGCDVG [HLA-A_Y123_Y123F]	1.28	0.905	0.801	0.645	1.14	0.749	1.86	0.545	0.619	1.42	0.503	1.01	0.548
0.679	0.589	0.518	DTCPPYVLSQG [GJB4_Y237]	1.12	0.637	0.417	0.552	0.77	0.671	1.32	0.663	0.507	1.21	0.439	1.07	0.637
0.779	0.569	0.418	TGTQLYGRFGS [ITGA2B_Y384]	0.619	0.351	0.498	0.451	0.513	0.389	0.654	10.6	7.54	0.608	0.732	0.404	7.68
0.678	0.783	0.828	HHTNEYEFDEL [TGM1_Y134_D132N_YF]	1.56	0.691	1.01	0.702	0.832	0.558	1.42	1.13	0.719	0.884	0.607	0.624	0.939
0.839	1.53	0.812	ISHVAYCVLGK [TRRAP_Y892_R893C]	1.3	0.731	0.79	0.73	0.834	0.952	1.49	0.675	1.09	1.17	1.14	1.03	0.523
0.92	0.602	0.322	RFLRGYRQYAY [HLA-A_Y137_D140Y]	1.61	1.33	0.752	0.77	0.669	0.577	1.19	1.29	0.634	4.7	0.846	1.56	1.56
1.08	0.812	0.593	PTTKSYFPHFD [HBA1_Y43_T42S]	1.13	0.746	0.442	1.38	0.77	0.497	1.42	0.431	0.752	0.558	0.664	0.501	0.498
0.986	0.475	0.771	ASELGYVFQAI [UROD_Y133]	1.03	0.471	0.566	0.483	0.749	0.386	0.852	0.397	0.378	0.924	0.264	0.545	0.423
